Source: the DeepSol protein solubility set

Assay: soluble on expression in E. coli; label from the status in PepcDB or PDB records
For “MARATLACMEKITGAERSPEARDSAGAVGGADGREALVARVRAGERIKYLCFWGHRPLPDGRLGPSCLSQWWPSPFTVAGVEYATAEHWMMAGKARLFGDPEAERRVLAAAHPAGAKKAGRLVRGFDEAVWERERFRIVVEGSVHKFASDPALRVFLLATGERVLVEASPVDRVWGIGLAADDEAAVDPERWRGPNLLGFALMAARERLRAGELEHHHHHH”, the “soluble on expression in E. coli” value was “not soluble”. With “MSLEAKKSKAIVFSGVNQIELREVTLKPVSSTDVLVETWWSSISTGTEKMALNGLIPSPPFIFPFIPGYETVGRIVEAGDHVNQGLIGKFAYVAGSFGYEDVNAAFGGASQFIVCPVESLTVLDGIANPQCGIALPLGATALHIVDLAEVKNRKVLVLGQGAVGILAAELAKRFGASLVAVTEPHQRRLDISTSDIKVNPEKQDVSVALAGHEFDVLIDSTGIMSAIETGLRFLKFHGKVIFGGYYQRMNIDYSQAFNKELSFIAARQWAKGDLHRVRELIAAGKINAEKIFTHQCTVDDNLMEAYMQAFSDSDCLKMIIHWKHGNEAGEHFPTCNTANEGHHHHHH” the “soluble on expression in E. coli” value was “soluble”. In the case of “MGSDKIHHHHHHMEFSNAERDVFLIKIEKMIDRGALMSRYSRASDPDIRSVYEKEFKTGAKSGEEFYRRIFLEYGDESIAELTTAQMGIQNVSNVASKIIEEIRIGLSYLEKSTRYVRYDKKVDGRYLYISPERIGISGDDAKDYVQLCDNLFEFYSKALPQVEDYLRHKFPQDKLVFQNAGGKTLTEMDQNEKKIAERSYINAVRSRALDDVRYILPASTLTNIGISGNGRALIHLIQKLMEYEIPETTKLAKDIYDELKPELPQLIDDALSGHGLEIINFKKNLMGLFPYDLTGNFERIRLLSYGEEDKELRKVASLIEYPFHGDAASLYSRSSESYVKYMKELIESIRSLRANRRMKPGRAFESVNYVFELNLNYGSFRDLQRHRFLGIIRKPLTAAYGYDTPPVISAIDELKTQYDELMANSSSFYQRLREKYGPWISQYVVPFAFKYPITFSTNLSEVTYFVELRSTAQAHFDLRDIAVSMYREVSKVHPTLSRIIKFVDTADYPLGRLSAEFRKESKKAGI”, the “soluble on expression in E. coli” value is reported as “not soluble”. In the case of “SSENQKEVSPPQAISVKSEASSSIFSKPISTSSPAGLAAAQRVTPGKLSTLLLEMGPLAIRHITQTLCLDIPCFKDLSSSKQRRLIMSAMESGDKEKSVVFEKIGWGQWSAKRVDPANFDKELEATNFANAKVKDLISQESQRRKSNNSNSNSGGKVEMPMKVEHNITNIDGATTPPTAVASTTIPVNIKRSKSPLAAANVVYIDENALASEDEDEEFDEDDHHLHYQNKSRNSSNNFGKSSNGDPYSFGRRRSQVVFADSTPENIEHEIIAQKIRPLLRNRRRSSIKPHTPFISKLNTHQDSSYLSPNTTSTTTPSNNNSNSNQAKIDLEKLTATSEPTSRRASRLSVSKESSIRSTLFPNKNYLIVTTNPNSKATSVSTSPKLEEQMNVSSNPIVLSDKEKHRVASQHLNGESSPQLVPHSHHQPHSDTDEEDWESIGAASLRNNSLAPNIDSVASSTNGVVSPKPTNPSFTNSQNGDIEPPLQHDQQKHEQQPRNGEDNSAAFLLMSLKS”, the “soluble on expression in E. coli” value is reported as “soluble”. In the case of “MRKVPIITADEAAKLIKDGDTVTTSGFVGNAIPEALDRAVEKRFLETGEPKNITYVYCGSQGNRDGRGAEHFAHEGLLKRYIAGHWATVPALGKMAMENKMEAYNVSQGALCHLFRDIASHKPGVFTKVGIGTFIDPRNGGGKVNDITKEDIVELVEIKGQEYLFYPAFPIHVALIRGTYADESGNITFEKEVAPLEGTSVCQAVKNSGGIVVVQVERVVKAGTLDPRHVKVPGIYVDYVVVADPEDHQQSLDCEYDPALSGEHRRPEVVGEPLPLSAKKVIGRRGAIELEKDVAVNLGVGAPEYVASVADEEGIVDFMTLTAESGAIGGVPAGGVRFGASYNADALIDQGYQFDYYDGGGLDLCYLGLAECDEKGNINVSRFGPRIAGCGGFINITQNTPKVFFCGTFTAGGLKVKIEDGKVIIVQEGKQKKFLKAVEQITFNGDVALANKQQVTYITERCVFLLKEDGLHLSEIAPGIDLQTQILDVMDFAPIIDRDANGQIKLMDAALFAEGLMGLKEMKS”, the “soluble on expression in E. coli” value is reported as “soluble”. In the case of “MVIHCKMFNNQRKTLAKEYHELYMNNNTETRKNKHLNERERYAIELYLKEKYTVTEIAKRLGRHRRTIEREITRGTIYLQNSDLTYRKEYCADVAQRRYVENGKNKGPRLKIGNDHELVRYIESKIINEKYSPDAVIGQIKAKGLKFKTSICTKTLYNYIDRGDVFLRLTNKYLPVKKDGKKRIYQRVKKIALKNLKGSSIEERPKEVNDRKEYGHWEMDCVVGRKNSAAVLLVLSERKTREEIILKLPDKTQESVIKAIDELERKYRRKFREKFKTITVDNGTEFLDYRGIEKSKTEPGKDRTKVYYAHPYSSWERGTNENINKLIRRFIPKGTDISKVSKAKIKSIERWINEYPRRMFGYRSAIEMAV”, the “soluble on expression in E. coli” value is reported as “not soluble”. In the case of “MGSDKIHHHHHHMSSNESQTLATISPTALSQLARYIKQWGQELGFAQVGITDTDLSEEEAKLQDWLDKGYHGEMGYMANHGMMRARPHELHQGTKRVVSLRMDYLPPSAGFATNLIDPTLGYISRYAGGRDYHKLMRQRIKKLGDKIEAYCQEQGFGATDSRPFVDSAPVMERPLAEKAGIGWTGKHSLILNHNAGSWFFLGELFINLPLPLDIPISDGCNTCVACIKSCPTGAIVEPYVVDGRRCISYLTIELQGAIPEEFRPLMGNRIYGCDDCQLVCPINAQAPLTQEHDFHIRQQILQPELLTLFNWSEKTFLSLTEGSAIRRIGHKRWLRNIAIALGNAPANPNIIEALSARKASDEVDDMVLEHINWALAQQQAKVQQQTKVQQQAKVQQAVQFEPARETPAQRKTARVVRSVEKGLPRDA”, the “soluble on expression in E. coli” value is reported as “not soluble”. With “MGSDKIHHHHHHMLEHGGNLHVASQQYGIAREYWLDLSTGINPQGYPVPEIPASAWHRLPEADPPLERIAASYYGAQRLLVTAGSQAAIQALPRLRQPCRVTVLGPMYAEHAHAWRQQGHQVSEIDYLPSAAMLAETDVLLVCNPNNPTARLLAPSTLLEWHQVLSEHDGWLVVDEAFMDSTPEHSLAAYSHHSGLIILRSLGKFFGLAGARVGFVLAETPLLTRMADLLGPWAVTGPSSIVAQAALADHAWQQHHRAKLLAESRQLADMLRQAGLPARKGCALFQWLKLEHAERLHVQLARQGVWTRHFPALRGVRIGLPSADGWQKLAVALKELQLQDLSD” the “soluble on expression in E. coli” value was “not soluble”. In the case of “MGSDKIHHHHHHMAIYEARGFSSYLYPYKGPLEPFDYIAQFRPLKPPEDIDIEEYKRTQAPYCLSGKVTAEKNGSYKRNNASLVYRDLIFLDYDEIETGVNLPKIVSQTLWEYSYIIYPTIKHTPEKPRYRLVMKPSDVMTEATYKQVVKEIADKIGLPFDLASLTWSQLQGLPVTTGDPEDYQRYVNHGLDYPVPKNGSTPNRQVVTTYTPRPRSQRSITMRVIDTLFNGFGNEGGRNVALTKFVGLLFNKWVDCDLETAYELVQIANSVTTKPLPIDEIDRTFTSIAKAEYRKRG”, the “soluble on expression in E. coli” value is reported as “not soluble”. For “MGYIEDMRNLVGNHPLILIGSHAIILNEKDEVLLQLRTDFNRWGIIGGALEYNETLEDALKREVFEETGLIIKNPELFRTYSGPDFFQIYPNGDQVHGVLVVYICREFHGELVCDHTESKELRFFSLDELPNNLPPVIEKIITDYLKK”, the “soluble on expression in E. coli” value was “not soluble”. With “MSLVMSDTLNSLQLGERPEGRTLLTASWVVGHKDGSHRLLKNGEVVFENGEILFVGHGFPGEVARRIDFGNALVSPGLIDLDALSDLDTTILGIDHHPGWAKGRVWPRSYVEAGPYEMYSAEELAFQKRFAFGQLLLNGITTAAPIASLFYRAWGETVAEFEAAADAAGELGLRVYLSPAFRSGGMVLEEPGRMFPVFDEERGFQGLKEAIAFIEKQSGRHGDLVRGMLAPDRVETSTLGLIERTDAAARELGCKFRLHMAQGVMEVDTVRKLHGSTAPVWLAKAGLLSERLIAPHATNATEEDLALYAENGVSIVHCPLVSSRGGSTLSSFSSCRKRGINIAMGTDTAPADMFMNLLVGLITCRINDGAPDQIRCADLFDAATLGGARALGRSDLGHLSSGARADIAVFDLDDAVMAPSVDPITTLVTGGSGKVTRAVFVDGRLSMRERQVAHIDMRRAREQAQAQFDRLIAKYPERSWANPPVSEIFPPSYQVEVAQHGEGHHHHHH” the “soluble on expression in E. coli” value was “soluble”. For “MDSGYWQSQFEDWLRHHHQEQDAAHDIFHFRRVWATAQTLGENSPVDWLVVLSACYFHDIVSLAKNHPQRHRSSILAAAETRRIFLRDFPDFPAEKLAGICHAIEAHSFSAKIAPTTPEAKIVQDADRLEALGAIGLARVFAVSGALGVALFDADDPFANRRPLNDKQFALDHFQTKLLKLPLTMQTERGKSLAQRNADFLVSYMAKLSAELKGDYETRDDAVIQMFATHQLEHHHHHH”, the “soluble on expression in E. coli” value was “soluble”. In the case of “MGSDKIHHHHHHMSHIIKIFPSNIEFSGREDESILDAALSAGIHLEHSCKAGDCGICESDLLAGEVVDSKGNIFGQGDKILTCCCKPKTALELNAHFFPELAGQTKKIVPCKVNSAVLVSGDVMTLKLRTPPTAKIGFLPGQYINLHYKGVTRSYSIANSDESNGIELHVRNVPNGQMSSLIFGELQENTLMRIEGPCGTFFIRESDRPIIFLAGGTGFAPVKSMVEHLIQGKCRREIYIYWGMQYSKDFYSALPQQWSEQHDNVHYIPVVSGDDAEWGGRKGFVHHAVMDDFDSLEFFDIYACGSPVMIDASKKDFMMKNLSVEHFYSDAFTASNNIEDNL”, the “soluble on expression in E. coli” value is reported as “not soluble”. For “MGSDKIHHHHHHMGVKFTLMGTTAGLGVPAFHCNCIACREARADPFWARTRSGAVLETGKENILIDASPDLSKQLLRERIQSVDYLFVTHWHYDHFGGIGDLEYYVKLERKRPVALFLPPSAVDDFAKAYPFLEEVFVIEPWEFGKSYAFEGIELTVLPARHSIETGGILLAGAKRAAYFTDTSGLPAPTARQLQGVDTLICDATFNGANWFPHSHMNWQEAIALGESIRAQHTVLTHLAMHYSTPITAAQLQEKLKDYAQVSLAYDGMVLTI”, the “soluble on expression in E. coli” value was “not soluble”. For “MSLRGQVHSVFVVVPRFNLTTLITMIETMRIGNYLSSERLFSWEVTSFDGLNLGASNGVRVHLDVEPDQTAPADQVFVLASWGGEHYQNKALASWLRKRARQGERICAVELGCYLVARAGLMDGKEATTHWSWINGFQEKFDQISVVEQLFTIDGRILTCAGGMAGVDLMLRLIEQSHGAGFSGEIADQMLHNPIRKGSSSQRRTMGRGTESILPLVRQAMTLIERNIEEPLTVPQIAAALDVSQRQLERQFKKHVGCTVVQFGLLRRLQNARVLLIATELSVREIATASGFNTLSHFSYSFSKFFGRRPSDYREAWPSNEAAPTWPGTLSDFLHAINSGDKREGHHHHHH”, the “soluble on expression in E. coli” value was “not soluble”. For “MLVGERLENEPNFYQEIDFLKHLAGINGVPVVHKHFQYEQKRVLVMDKYLENLEQFRKRKEDEKLSPRVVIKLAFRLVSILEHIHRKGVVHQDIKLDNVVFGAKVGNKLDIVLIDYGIAAFTKPKPPRDLVDGALHCTTDFSSSVYASPGLVQGLKGDPVDDLQMLSFMLLWASKYNPFGEDSLESLRKKKEFIAKPSIFTQGDYKFLRPVISKIMEQKRSKRPDYKAISKKCANKDNYFNPDTAVHLGNAYEFF”, the “soluble on expression in E. coli” value was “not soluble”. For “MGSDKIHHHHHHMECTSYLVDTFDQLPPINEESLADIDNDLFSGLYYGGVDTPTTRQLSQRVADLEKGKFAVLTPSGQSAFNLLLTTFVKPGDHVLAGDTIVYSTRWLLNHFENIGVKIEYFTPSEAATLKNKLTLKTKLIIFENPGAFTYEVMDISAIVESRHDHPALIVADNTWAASLFHHPLSLGADISLISMSKYHGAVEGISLGALITKRKDLYVNLKTTSALTGNHVSSHACSAAIRSISTLGARLSFQMSTTRKVLRSLKPLPLLKQAIHPILQNTELHLQNSMIYGFNSLFTAEFSCSRNELISRLNRLNLIKIGYGWGGTTSLVNLIDTHDMPSAKRLGINSECARIYLGLEDPDELTRDLTNAFTQ”, the “soluble on expression in E. coli” value was “not soluble”.
